One substance from paper PMC4414485 can be followed below.

Test [1] addresses hERG1a(R56Q).Citrine (human) (UniProt Q12809).
Test [2] shares this target. The source holds these as a separate data set.

Regarding “isolated eag domain of hERG fused to CFP (i-eag.CFP) (domain or fragment)”, in test [1], the fast deactivation time constant (tau fast) of hERG1a(R56Q) tail currents with co-expressed i-eag in HEK293 cells, whole-cell patch clamp, -120 to -20 mV (slower than hERG1a(R56Q) alone) came out at 307 ms; the fast deactivation time constant (tau fast) of hERG1a(R56Q) tail currents with co-expressed i-eag in hiPSC-CMs, whole-cell patch clamp, -120 to -20 mV (slower than hERG1a(R56Q) alone) was 326 ms; the slow deactivation time constant (tau slow) of hERG1a(R56Q) tail currents with co-expressed i-eag in HEK293 cells, whole-cell patch clamp, -120 to -20 mV (slower than hERG1a(R56Q) alone) worked out at 1780 ms; the slow deactivation time constant (tau slow) of hERG1a(R56Q) tail currents with co-expressed i-eag in hiPSC-CMs, whole-cell patch clamp, -120 to -20 mV (slower than hERG1a(R56Q) alone) is 2340 ms. Further, the V1/2 of steady-state inactivation of hERG R56Q channels with co-expressed i-eag in HEK293 cells (hERG R56Q alone -13.6 mV, WT hERG -32.2 mV) in test [2] is -24.7 mV.
